From patent publication US20100303790A1, “USE OF BILIVERDIN REDUCTASE (BVR) AND BVR PEPTIDE FRAGMENTS TO TREAT CORONARY DISORDERS” (UNIVERSITY OF ROCHESTER, priority 2009, published 2010)

How the values were obtained:
BVR [1] = biological target: T1, BVR (Rattus norvegicus, UniProt P46844); assay: Langendorff perfused heart: BVR activity (biliverdin to bilirubin, pH 6.7); format: in vivo
T1 construct: Cardiomyocytes and heart tissue samples were lysed in buffer containing 100 mM sodium phosphate pH 7.4; from tissue; host or cells: isolated Langendorff-perfused rat heart, lysate
T1 sequence (P46844 3-295): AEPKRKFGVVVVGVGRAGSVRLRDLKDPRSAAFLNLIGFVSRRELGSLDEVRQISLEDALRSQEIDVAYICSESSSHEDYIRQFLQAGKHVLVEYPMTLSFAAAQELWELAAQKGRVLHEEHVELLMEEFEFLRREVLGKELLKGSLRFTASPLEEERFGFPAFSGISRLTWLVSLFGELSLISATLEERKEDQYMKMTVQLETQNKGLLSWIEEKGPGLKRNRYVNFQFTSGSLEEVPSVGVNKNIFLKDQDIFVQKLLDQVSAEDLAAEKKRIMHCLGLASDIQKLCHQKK
From the text: In Vivo Experimental Langendorff Model: Male Sprague-Dawley rats weighing 250-300 g (Charles River, Boston, Mass.) were used in this study; the protocol is based on that described by Tompkins et al., “Mitochondrial Dysfunction in Cardiac Ischemia-Reperfusion Injury: ROS From Complex I, Without Inhibition,” Biochim Biophys Acta 1762:223-231 (2006), which is hereby incorporated by reference in its entirety, with minor modification. The rats were fed a standard rat chow and had water ad libitum. All experiments were approved by the University of Rochester Institutional Animal Care and Use Committee. Rats were given two subcutaneous injections of isoproterenol (ISO) (0.01 mg/kg), 6 hours apart, then anesthetized with freshly prepared Avertin (2,2,2-tribromoethanol, […] injected intraperitoneally), and treated with heparin (5000 U/kg), i.p., to protect the heart against microthrombi. The aorta was cannulated in situ with a 22-gauge needle filled with warm Krebs-Henseleit (KH) buffer. The heart was rapidly transferred (<10 s.) to a perfusion apparatus, and retrograde (Langendorff) perfusion begun with 37° C. […] Hemodynamics and heart rate were recorded by inserting a water-filled balloon connected to a transducer (Radnoti LLC, model no. 159904B) into the left ventricle. […]
Measurement of BVR Activity: Cardiomyocytes and heart tissue samples were lysed in buffer containing 100 mM sodium phosphate pH 7.4, 1% Nonidet-P-40, 10% glycerol, 0.2 mM dithiothoeitol, 10 mM NaF, protease inhibitor mixture (10 μg/ml aprotinin, 10 μg/ml leupeptin, 10 μg/ml pepstatin, and 0.1 mM phenylmethylsulfonyl fluoride). BVR activity was measured at pH 6.7 as described previously (Huang et al., “Detection of 10 Variants of Biliverdin Reductase in Rat Liver by Two-Dimensional Gel Electrophoresis,”J Biol Chem 264:7844-7849 (1989), which is hereby incorporated by reference in its entirety). The rate of conversion of biliverdin to bilirubin was determined as the increase in absorbance at 450 nm at 25° C. Specific activity is expressed as nanomoles of bilirubin/min/mg of protein. […]

BVR [2] = biological target: T2, BVR (Homo sapiens, UniProt P53004, A154S/E160D/G155D); conditions: Lerner-Marmarosh et al. 2007; cited from earlier work
T2 sequence (P53004 3-296 A154S/G155D/E160D): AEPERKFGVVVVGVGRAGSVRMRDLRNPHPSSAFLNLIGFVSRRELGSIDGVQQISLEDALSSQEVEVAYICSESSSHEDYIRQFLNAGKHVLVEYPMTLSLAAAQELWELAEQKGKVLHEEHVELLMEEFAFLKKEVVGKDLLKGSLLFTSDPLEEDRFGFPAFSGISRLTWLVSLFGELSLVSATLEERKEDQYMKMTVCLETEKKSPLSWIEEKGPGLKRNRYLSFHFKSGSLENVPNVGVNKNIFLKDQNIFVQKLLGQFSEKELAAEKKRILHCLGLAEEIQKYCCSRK

[3] = system: rat neonatal cardiomyocytes; conditions: literature (Hu et al. 2006); cited from earlier work

| Molecule | BVR activity (BVR [1]; peptide 25 μM, whether ISO was present or not) | effect on BVR activity (BVR [2]) | cardiomyocyte apoptosis [3] | BVR activity (BVR [1]; peptide 25 μM alone) | BVR reductase activity (BVR [1]; peptide 25 μM and 0.1 μM ISO) |
| --- | --- | --- | --- | --- | --- |
| KKRILHC (biliverdin reductase peptide) [KKRILHC^281] | blocked the activity of BVR | potent inhibitor | – | – | – |
| CC(C)NCC(O)c1ccc(O)c(O)c1 (stereo not drawn) [isoproterenol] | – | – | increases cardiomyocyte apoptosis | – | – |
| KYCCSRK (biliverdin reductase peptide) [KYCCSRK^296] | – | activator | – | increased BVR activity | significant activation |
